The values below come from CN116178530A.

Test in all cases: cell-based or functional assay
Experiment [1] concerns the target SARS-CoV-2的Alpha突变株(B.1.1.7)假病毒的刺突蛋白 (SARS-CoV-2) (UniProt P0DTC2).
Experiment [2] addresses SARS-CoV-2的Kappa突变株(B.1.617.1)假病毒的刺突蛋白 (SARS-CoV-2) (UniProt P0DTC2).
The target in experiment [3] is SARS-CoV-2的Delta突变株(B.1.617.2)假病毒的刺突蛋白 (SARS-CoV-2) (UniProt P0DTC2).

In the case of CB6 (antibody), the 假病毒中和 IC50 (荧光素酶报告基因, 293-ACE2细胞) in experiment [1] was 55.7 ng/mL; in experiment [2], 14.7 ng/mL; in experiment [3], 3.43 ng/mL.
